{
  "source": "FireProtDB (doi:10.1110/ps.062645007)",
  "conditions": "Salmonella typhimurium (strain LT2 / SGSC1412 / ATCC 700720); pH 7.4; Thermal; CD; Phosphate 10 mM; transition: 3; whole UniProt chain shown",
  "note": "Where “and” joins values, the source holds several entries; their conditions need not be identical. Identical values can stand only once.",
  "data": [
    {"protein": "Cell invasion protein SipD wild type, Q56026 (protein) MLNIQNYSASPHPGIVAERPQTPSASEHVETAVVPSTTEHRGTDIISLSQAATKIHQAQQTLQSTPPISEENNDERTLARQQLTSSLNALAKSGVSLSAEQNENLRSAFSAPTSALFSASPMAQPRTTISDAEIWDMVSQNISAIGDSYLGVYENVVAVYTDFYQAFSDILSKMGGWLLPGKDGNTVKLDVTSLKNDLNSLVNKYNQINSNTVLFPAQSGSGVKVATEAEARQWLSELNLPNSCLKSYGSGYVVTVDLTPLQKMVQDIDGLGAPGKDSKLEMDNAKYQAWQSGFKAQEENMKTTLQTLTQKYSNANSLYDNLVKVLSSTISSSLETAKSFLQG", "values": [
      {"measurement": "Tm", "value": "75.7 °C and 76.6 °C"}
    ]}
  ]
}
